In patent publication US20140322307A1 (LIPOTEC S A, published 2014):

T1: Proteinase-Activated Receptor-2 (human, on human keratinocytes) (human, UniProt P55085 37-397)
T1 sequence (looked up): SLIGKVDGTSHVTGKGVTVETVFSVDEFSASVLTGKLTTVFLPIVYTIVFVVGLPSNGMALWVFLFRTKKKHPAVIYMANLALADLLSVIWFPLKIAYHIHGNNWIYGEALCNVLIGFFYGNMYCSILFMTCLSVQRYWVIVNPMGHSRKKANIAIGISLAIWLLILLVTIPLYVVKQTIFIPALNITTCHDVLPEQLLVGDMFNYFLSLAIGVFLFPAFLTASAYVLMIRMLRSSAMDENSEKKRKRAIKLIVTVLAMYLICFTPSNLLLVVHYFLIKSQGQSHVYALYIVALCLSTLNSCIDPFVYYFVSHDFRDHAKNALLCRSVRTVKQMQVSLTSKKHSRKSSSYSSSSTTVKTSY

T2: Proteinase-Activated Receptor-2 (rat, on rat DRG neurons) (rat, UniProt Q63645 37-397)
T2 sequence (looked up): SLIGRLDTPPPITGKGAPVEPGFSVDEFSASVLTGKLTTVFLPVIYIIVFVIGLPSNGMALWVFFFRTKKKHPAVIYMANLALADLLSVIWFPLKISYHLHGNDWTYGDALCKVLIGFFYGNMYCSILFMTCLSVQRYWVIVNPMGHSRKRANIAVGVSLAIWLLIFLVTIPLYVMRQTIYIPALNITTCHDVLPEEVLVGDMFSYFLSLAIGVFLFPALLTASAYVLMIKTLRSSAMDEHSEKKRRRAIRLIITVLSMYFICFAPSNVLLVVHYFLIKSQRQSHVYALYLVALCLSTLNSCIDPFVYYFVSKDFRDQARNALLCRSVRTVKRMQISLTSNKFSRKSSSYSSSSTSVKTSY


molecular target: T1, Proteinase-Activated Receptor-2 (human, …); test: cell-based or functional assay

Going from Ac-FFWFHV-NH2 [Ac-L-Phe-L-Phe-L-Trp-L-Phe-L-His-L-Val-NH2] to Ac-SMWFIV-NH2 [Ac-L-Ser-L-Met-L-Trp-L-Phe-L-Ile-L-Val-NH2], the “Inhibition PAR-2 activity (calcium fluorescence, human keratinocytes, peptide at 1 mg/mL)” value falls from 67.8% to 43.3%.

First: Ac-FFWDIV-NH2 [Ac-L-Phe-L-Phe-L-Trp-L-Asp-L-Ile-L-Val-NH2]
Second: Ac-FMWFHV-NH2 [Ac-L-Phe-L-Met-L-Trp-L-Phe-L-His-L-Val-NH2]
The “Inhibition PAR-2 activity (calcium fluorescence, human keratinocytes, peptide at 1 mg/mL)” value of the first is lower: 67.4% for the first, 76.5% for the second.

In the case of Ac-FFWFIV-NH2 [Ac-L-Phe-L-Phe-L-Trp-L-Phe-L-Ile-L-Val-NH2], the “Inhibition PAR-2 activity (calcium fluorescence, human keratinocytes, peptide at 1 mg/mL)” value is reported as 13.9%.

First: Ac-FFWFHV-NH2 [Ac-L-Phe-L-Phe-L-Trp-L-Phe-L-His-L-Val-NH2]
Second: Ac-SMWFIV-NH2 [Ac-L-Ser-L-Met-L-Trp-L-Phe-L-Ile-L-Val-NH2]
The “PAR-2 activity (calcium fluorescence, human keratinocytes, peptide at 1 mg/mL)” value of the first is lower: 32.2% for the first, 56.7% for the second.

Going from Ac-FFWDIV-NH2 [Ac-L-Phe-L-Phe-L-Trp-L-Asp-L-Ile-L-Val-NH2] to Ac-FMWFHV-NH2 [Ac-L-Phe-L-Met-L-Trp-L-Phe-L-His-L-Val-NH2], the “PAR-2 activity (calcium fluorescence, human keratinocytes, peptide at 1 mg/mL)” value falls from 32.6% to 23.5%.

With Ac-FFWFIV-NH2 [Ac-L-Phe-L-Phe-L-Trp-L-Phe-L-Ile-L-Val-NH2] the “PAR-2 activity (calcium fluorescence, human keratinocytes, peptide at 1 mg/mL)” value was 86.1%.

molecular target: T2, Proteinase-Activated Receptor-2 (rat, …); test: cell-based or functional assay

First: Ac-FFWFHV-NH2 [Ac-L-Phe-L-Phe-L-Trp-L-Phe-L-His-L-Val-NH2]
Second: Ac-FFWDIV-NH2 [Ac-L-Phe-L-Phe-L-Trp-L-Asp-L-Ile-L-Val-NH2]
The “% CGRP (release from rat DRG neurons after PAR-2 agonist I and capsaicin; peptide at 25 µg/mL)” value of the first is lower: 58.9% for the first, 78.7% for the second.

In the case of Ac-FMWFHV-NH2 [Ac-L-Phe-L-Met-L-Trp-L-Phe-L-His-L-Val-NH2], the “% CGRP (release from rat DRG neurons after PAR-2 agonist I and capsaicin; peptide at 25 µg/mL)” value is reported as 70.1%.

First: Ac-FFWFHV-NH2 [Ac-L-Phe-L-Phe-L-Trp-L-Phe-L-His-L-Val-NH2]
Second: Ac-FFWDIV-NH2 [Ac-L-Phe-L-Phe-L-Trp-L-Asp-L-Ile-L-Val-NH2]
The “% CGRP (release from rat DRG neurons after PAR-2 agonist I and capsaicin; peptide at 0.5 mg/mL)” value of the first is lower: 17.7% for the first, 20.3% for the second.

Ac-FMWFHV-NH2 [Ac-L-Phe-L-Met-L-Trp-L-Phe-L-His-L-Val-NH2] was tested, and the “% CGRP (release from rat DRG neurons after PAR-2 agonist I and capsaicin; peptide at 0.5 mg/mL)” value was 20.2%.
